According to US7846719B2, “Express system of soluble glutaminyl cyclase” (Academia Sinica, priority 2006, dated 2010):

Substrate: NC(=O)CC[C@H](NC(=O)[C@@H](N)CCC(N)=O)C(=O)O
Assay: Spectrophotometric QC activity assay (glutamate dehydrogenase coupled), human QC expressed in E. coli
Type: biochemical
Conditions: other: substrate of human QC expressed in Escherichia coli cell, mean ± SD (n = 2), 50 mM Tris-HCl, pH 8.0
Protocol: For the spectrophotometric method, the 500 μl assay solutions consisted of 15 units glutamate dehydrogenase, 12 mM α-ketoglutarate, 0.6 mM NADH (a reduced form of NAD (nicotinamide adenine dinucleotide)) and varying concentrations of synthetic substrate in 50 mM Tris-HCl, pH 8.0. Reactions were started by the addition of QC (0.04 to 2.5 μg), and the activity was monitored by recording the decrease of NADH absorbance at 340 nm.
The Km and kcat values determined for the recombinant protein of the invention were very similar to the human QC expressed in Drosophila S2 cells, as evident in Table 1.

B1: recombinant human QC (Homo sapiens) (protein)
chain: ASAWPEEKNYHQPAILNSSALRQIAEGTSISEMWQNDLQPLLIERYPGSPGSYAARQHIMQRIQRLQADWVLEIDTFLSQTPYGYRSFSNIISTLNPTAKRHLVLACHYDSKYFSHWNNRVFVGATDSAVPCAMMLELARALDKKLLSLKTVSDSKPDLSLQLIFFDGEEAFLHWSPQDSLYGSRHLAAKMASTPHPPGARGTSQLHGMDLLVLLDLIGAPNPTFPNFFPNSARWFERLQAIEHELHELGLLKDHSLEGRYFQNYSYGGVIQDDHIPFLRRGVPVLHLIPSPFPEVWHTMDDNEENLDESTIDNLNKILQVFVLEYLHL
notes: corresponding to the coding region of human QC (Ala33-Leu361) was re-amplified and inserted into a pET-43.1a expression vector; Nus fusion (pET-43.1a construct) or thioredoxin fusion (pET-32a construct) (N, cleaved yes); (His)6 (pET-43.1a construct: N- and C-terminal sites; pET-32a construct: 5'-end, upstream of the Factor Xa site); made in house; host or cells: E. coli BL21 (DE3)
- Km: 600 ± 100 µM
- kcat: 8.6 ± 0.5 s⁻¹
- kcat/Km: 13700 ± 500 M⁻¹ s⁻¹
